Test [1] deals with GST-tagged ChYtm1 (Chaetomium thermophilum) (UniProt G0SFB5). As to the kind of experiment: BLI. (BLI is a label-free optical method that tracks binding on a fibre tip over time.)
In test [2] the target is T1, 6xHis-tagged ChYtm1 (Ytm1 from Chaetomium thermophilum) (Chaetomium thermophilum, UniProt G0SFB5 1-495).
T1 sequence (looked up): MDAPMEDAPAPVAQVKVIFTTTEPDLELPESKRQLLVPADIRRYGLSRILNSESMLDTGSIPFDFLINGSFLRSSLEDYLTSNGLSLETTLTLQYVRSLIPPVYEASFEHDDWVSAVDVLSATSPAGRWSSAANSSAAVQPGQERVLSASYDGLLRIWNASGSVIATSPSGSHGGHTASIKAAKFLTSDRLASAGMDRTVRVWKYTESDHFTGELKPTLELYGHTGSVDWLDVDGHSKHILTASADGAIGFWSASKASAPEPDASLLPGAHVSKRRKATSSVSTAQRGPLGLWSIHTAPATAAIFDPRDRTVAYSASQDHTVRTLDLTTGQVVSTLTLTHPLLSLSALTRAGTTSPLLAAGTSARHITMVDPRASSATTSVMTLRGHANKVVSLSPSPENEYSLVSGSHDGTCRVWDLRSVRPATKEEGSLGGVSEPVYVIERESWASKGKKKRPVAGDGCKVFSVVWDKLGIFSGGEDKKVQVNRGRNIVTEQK
Nature of the test: ITC. (In general: Isothermal titration calorimetry measures the heat released or taken up as one component is titrated into another.)

On to “6xHis-ChErb1[R486E], full-length (from UniProt G0SCK6 1-801) (natural protein)”, for which the fold loss of affinity (KD) against the ChErb1-ChYtm1 interaction in test [1] is 100 fold. Molecule “ChErb1 R486A mutant (from UniProt G0SCK6 1-801) (natural protein)” gave a Kd in test [1] of 7 nM. That is a single-digit nanomolar value.

B1: 6xHis-ChErb1_(432–801) (β-propeller domain of ChErb1) (domain or fragment, Chaetomium thermophilum, UniProt G0SCK6 432-801, looked up)
chain: LPSPDELKPFPTVQQTIFRGHEGRVRSVAIDPTGVALATGGDDGTVRVWELLTGRQVWSVKLNGDEAVNTVRWRPTKDTFILAAAAGEDIFLMIPTHPSVTPALDQASRDILNAGFGHATNGKQQANLPPGKEPPGKWARPGTRLEDEGVLLRITVRSTIKAISWHRRGDHFATVSPSGQRSSVAIHTLSKHLTQIPFRKLNGLAQTASFHPLRPLFFVATQRSIRCYDLQKLELVKIVQPGAKWISSFDVHPGGDNLVVGSYDKRLLWHDLDLSNRPYKTMRFHTEAIRAVRFHKGGLPLFADASDDGSLQIFHGKVPNDQLENPTIVPVKMLKGHKVVNKLGVLDIDWHPREPWCVSAGADGTARLWM
In the case of B1, the Kd in test [2] was ~9 nM.

For orientation: Kd means the constant that tells how readily two partners part at equilibrium. Read a high Kd as weaker binding.
